Experimental data taken from publication PMC6778195.

B1: unnamed (parent)
chain 1: PCVVGGQADTIYPAIANQMAHQMHEDAQTEASKRGLAKLRADAKQGIYKKNRKPQELSNICNITLQHSNDSRNGNNGGACTGKDGNNERFKIGTEWKIGEKVETTDTDAYIPPRRQHMCTSNLENLNVSWVTEDGKAIHSLLGDVQLAAKMDADEIIKRYKKHNTLTDPIQQKDQESICRAVRYSFADLGDIIRGRDLWEHGDQTKLQGHLQIIFGKIKEEIKKKHPGINGNDKYKGDEKNNPPYKQLREDWWEANRHQVWRAMQCELKNLKKSNGDCHYNSRGTPLDDYIPQRLRWMVEWAEWFCKMQSQEYDKLMKQCSQCMSKGGDCRKGDVNCTSCEQACEEYKKKIKKWEKQWNKIKDKYEELYLQAKIAFAGTSFGGGDRDYQQMVHFFKELQKVTGDTTLGDTTSPYSTAAGYIHQEGHVDECTEQTQFCKNRNGNTASGKEDDNYTFKDPPPKYANACKCD
chain 2: QTSVSPSKVILPRGGSVLVTCSTSCDQPKLLGIETPLPKKELLLPGNNRKVYELSNVQEDSQPMCYSNCPDGQSTAKTFLTVYWTPERVELAPLPSWQPVGKNLTLRCQVEGGAPRANLTVVLLRGEKELKREPAVGEPAEVTTTVLVRRDHHGANFSCRTELDLRPQGLELFENTSAPYQLQTFVLPATPPQLVSPRVLEVDTQGTVVCSLDGLFPVSEAQVHLALGDQRLNPTVTYGNDSFSAKASVSVTAEDEGTQRLTCAVILGNQSQETLQTVTIYSFPAPNVILTKPEVSEGTEVTVKCEAHPRAKVTLNGVPAQPLGPRAQLLLKATPEDNGRSFSCSATLEVAGQLIHKNQTRELRVLYGPRLDERDCPGNWTWPENSQQTPMCQAWGNPLPELKCLKDGTFPLPIGESVTVTRDLEGTYLCRARSTQGEVTRKVTVNVLSPRYE

Variants of: B1
Assay: SPR
Conditions: with partner chain of the complex shown; top curve of the dilution series (250 nM), read at end of injection (~250 s); parent: 260; read off a plot

Row | Variant | response [RU]
1 | chain 1 N241A | 280
2 | chain 1 N242A | 270
3 | chain 1 L370D | 70
4 | chain 1 G382A G383A G384A | 260
5 | chain 1 Q389A | 280
6 | chain 1 G383A | 270
7 | chain 1 G382A G383A | 280
8 | chain 1 E366A | 190
9 | chain 1 L407D | 220
